Assay results reported in patent US6800481B1, “Stable macroscopic membranes formed by self-assembly of amphiphilic peptides and uses therefor” (priority 1992, dated 2004).

Assays:
[1] = Testing of peptides for macroscopic membrane formation (phase-contrast microscope, Congo Red staining); format: physicochemical; settings: for formation of macroscopic membranes: identical conditions, in words; for membranous structure in DMEM: DMEM medium
From the text: The effect of length and sequence on membrane formation was examined using several peptides (Table 1 and Example 3). […] Very long peptides, e.g., of about 200 amino acids, may encounter problems due to insolubility and intramolecular interactions which destabilize membrane formation. […] The optimal lengths for membrane formation will probably vary with the amino acid composition.
The EAK12 and EAK16 tested for membrane formation were acetylated and aminylated at both N- and C-terminal ends. […] The peptides were initially dissolved in water (5 mg/ml) or in 23% acetonitrile (10 mg/ml). A volume of 5-10 microliters of the dissolved peptides were applied to the DMEM medium, PBS or water. The formation of the membrane was first observed under a phase-contrast microscope and then, by the naked eye after staining with Congo Red.

[2] = format: physicochemical
Experimental: Circular dichroism (CD) spectra were taken on an Aviv Model 60DS spectropolarimeter using program 60HDS for data processing. Because EAK16 contains both positively and negatively charged residues, the peptide itself can serve as a buffer. CD samples were prepared and measured at 25° C., unless otherwise indicated. All reagents were ultrapure and solutions were filtered through a […] before use. Circular dichroism (CD) spectroscopy was used to monitor the stability of the β-sheet structure of EAK16 under various conditions. Dilute […] concentrations. […] A 3 mM stock EAK16 solution was mixed in water to a concentration of 20 μM, allowed to equilibrate, and the CD spectrum measured. The solution was then diluted five times by two-fold serial dilutions to final concentrations of […], 10, 5.0, 2.5, 1.25 and 0.625 μM, allowed to equilibrate and CD spectra taken. […] Temperature. The CD spectra of 8 μM EAK16 at 25, 37, 55, 70 and 90° C. in water were measured. […] EAK16 has a calculated pI Of 6.71. It was assumed that changes of pH would have a great effect on the β-sheet structure, especially when the charged groups are neutralized. […] The 3 mM stock solution of EAK16 was mixed with pH buffers at pH 1.5, 3, 7, and 11 to a final concentration of 10 μM and allowed to equilibrate for 4 hours before taking CD measurements. […] Chemical denaturants. […] The peptide (3 mM stock) was mixed with water or different concentrations of guanidine-HCl or urea and allowed to incubate overnight before taking CD measurements. SDS was added to a peptide solution to a final concentration of 0.1% and incubated for 30 minutes.

| Substance | membranous structure in PBS [1] | formation of macroscopic membranes [1] | membranous structure in Water [1] | secondary structure and its stability [2] | Structure ([2]; secondary structure) | membranous structure in DMEM [1] |
| --- | --- | --- | --- | --- | --- | --- |
| Ac-HN-AEAKAEAEAKAK-CONH2 (Ac-AEAKAEAEAKAK-NH2) [EAK12] | + | able to associate to a much smaller extent and formed small and non-uniform pieces of membranous material | − | denature from a β-sheet structure at high temperatures | α, β |  |
| H2N-AEAEAKAK-COOH (H-AEAEAKAK-OH) [EAK8] | − | did not form membranes | − | random coil structure |  | − |
| H2N-ARARADAD-COOH (H-ARARADAD-OH) [ARD8, 8 amino acid counterpart of RAD16] | − | did not form macroscopic membranes | − |  |  | − |
| H2N-GSNKGAIIGLM-CONH2 (H-GSNKGAIIGLM-NH2) [β-Amyloid (25-35), reference compound] | − | None of these peptides produced macroscopic membranes | − |  |  | − |
| H2N-RPKQQFGLM-COHN2 (H-RPKQQFGLM-NH2) [Substance p, reference compound] | − | None of these peptides produced macroscopic membranes | − |  |  | − |
